For the experiment, the target named is mlp3a_human MAP1LC3A (UniProt Q9H492).

Consider “BCL2/adenovirus E1B 19 kDa protein-interacting protein 3-like (Mus musculus), Q9Z2F7 L38A”, for which the “effect of a mutation on the interaction” value is “disrupting interaction”.
